Drawing on patent USRE47150 (Bayer, dated 2018), this text covers variant/HC_K99L for 18 molecules.

For assay [1], the target named is T1, human tissue factor pathway inhibitor (TFPI) (human, UniProt P10646 29-304, limits assumed).
T1 construct: bought; also called hTFPI; human TFPI
T1 sequence (looked up): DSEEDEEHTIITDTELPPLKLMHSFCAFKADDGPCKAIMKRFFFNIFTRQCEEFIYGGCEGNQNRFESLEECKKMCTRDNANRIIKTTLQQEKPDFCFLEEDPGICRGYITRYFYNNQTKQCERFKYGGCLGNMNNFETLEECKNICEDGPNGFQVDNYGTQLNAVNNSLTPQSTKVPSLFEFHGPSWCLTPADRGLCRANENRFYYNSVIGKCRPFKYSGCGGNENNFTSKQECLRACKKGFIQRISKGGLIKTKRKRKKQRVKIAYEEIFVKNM
The experiment in a line: competitive ELISA. On the technique in general: An ELISA detects its analyte on a solid surface through an enzyme-linked reagent.

Assay [2] addresses T2, mouse tissue factor pathway inhibitor (TFPI) (mouse, UniProt O54819 29-289, limits assumed).
T2 construct: bought; also called mTFPI; murine TFPI
T2 sequence (looked up): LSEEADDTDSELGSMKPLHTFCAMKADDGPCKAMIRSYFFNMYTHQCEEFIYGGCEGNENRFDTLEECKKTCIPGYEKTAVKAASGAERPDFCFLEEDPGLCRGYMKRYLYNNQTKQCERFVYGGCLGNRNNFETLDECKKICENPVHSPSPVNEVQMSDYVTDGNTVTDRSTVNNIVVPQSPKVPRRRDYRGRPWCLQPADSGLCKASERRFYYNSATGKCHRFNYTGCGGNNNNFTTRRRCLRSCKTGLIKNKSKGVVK
The experiment in a line: competitive ELISA.

B1: 2A8 HC Q1E+S31V+S50A+I51D+S55R+S56G+K99V/LC Y48F+D91L+V96W (Fab, V domains shown)
VH: EVQLVESGGGLVQPGGSLRLSCAASGFTFRVYGMSWVRQAPGKGLEWVSADRGSRGSTYYADSVKGRFTISRDNSKNTLYLQMNSLRAEDTAVYYCARVYRYWFDYWGQGTLVTVSS
VL: DIELTQPPSVSVAPGQTARISCSGDNLRNYYAHWYQQKPGQAPVVVIFYDNNRPSGIPERFSGSNSGNTATLTISGTQAEDEADYYCQSWLDGVPWFGGGTKLTVLG
B1: the variant/HC_K99L was found to be 12.1 ratio in assay [1] and 7.7 ratio in assay [2].

B2: 2A8 HC S31V+I51E+S55R+K99V/LC Y48F+D91L+V96W (Fab, V domains shown)
VH: QVQLVESGGGLVQPGGSLRLSCAASGFTFRVYGMSWVRQAPGKGLEWVSSERGSRSSTYYADSVKGRFTISRDNSKNTLYLQMNSLRAEDTAVYYCARVYRYWFDYWGQGTLVTVSS
VL: DIELTQPPSVSVAPGQTARISCSGDNLRNYYAHWYQQKPGQAPVVVIFYDNNRPSGIPERFSGSNSGNTATLTISGTQAEDEADYYCQSWLDGVPWFGGGTKLTVLG
For B2, the variant/HC_K99L worked out at 9.2 ratio in assay [1] and 7 ratio in assay [2].

B3: 2A8 HC S31V+I51D+S55R+K99L/LC Y48F+N52G+D91L+V96W (Fab, V domains shown)
VH: QVQLVESGGGLVQPGGSLRLSCAASGFTFRVYGMSWVRQAPGKGLEWVSSDRGSRSSTYYADSVKGRFTISRDNSKNTLYLQMNSLRAEDTAVYYCARLYRYWFDYWGQGTLVTVSS
VL: DIELTQPPSVSVAPGQTARISCSGDNLRNYYAHWYQQKPGQAPVVVIFYDNGRPSGIPERFSGSNSGNTATLTISGTQAEDEADYYCQSWLDGVPWFGGGTKLTVLG
In the case of B3, the variant/HC_K99L in assay [1] was determined as 0.4 ratio; in assay [2] it was 0.1 ratio.

B4: 2A8 HC S31V+G33P+I51D+S54F+K99V/LC Y48F+N51V+D91W (Fab, V domains shown)
VH: QVQLVESGGGLVQPGGSLRLSCAASGFTFRVYPMSWVRQAPGKGLEWVSSDRGFSSSTYYADSVKGRFTISRDNSKNTLYLQMNSLRAEDTAVYYCARVYRYWFDYWGQGTLVTVSS
VL: DIELTQPPSVSVAPGQTARISCSGDNLRNYYAHWYQQKPGQAPVVVIFYDVNRPSGIPERFSGSNSGNTATLTISGTQAEDEADYYCQSWWDGVPVFGGGTKLTVLG
With B4, the results for the variant/HC_K99L in assay [1] and in assay [2] were 6.6 ratio and 5.9 ratio, respectively.

B5: 2A8 HC S31V+G33P+S35D/LC Y48F+D91L+V96W (Fab, V domains shown)
VH: QVQLVESGGGLVQPGGSLRLSCAASGFTFRVYPMDWVRQAPGKGLEWVSSIRGSSSSTYYADSVKGRFTISRDNSKNTLYLQMNSLRAEDTAVYYCARKYRYWFDYWGQGTLVTVSS
VL: DIELTQPPSVSVAPGQTARISCSGDNLRNYYAHWYQQKPGQAPVVVIFYDNNRPSGIPERFSGSNSGNTATLTISGTQAEDEADYYCQSWLDGVPWFGGGTKLTVLG
B5: the variant/HC_K99L in assay [1] is 22.5 ratio; in assay [2], 5.9 ratio.

B6: 2A8 HC S31V+S35D+I51D+K99V/LC Y48F+D91K (Fab, V domains shown)
VH: QVQLVESGGGLVQPGGSLRLSCAASGFTFRVYGMDWVRQAPGKGLEWVSSDRGSSSSTYYADSVKGRFTISRDNSKNTLYLQMNSLRAEDTAVYYCARVYRYWFDYWGQGTLVTVSS
VL: DIELTQPPSVSVAPGQTARISCSGDNLRNYYAHWYQQKPGQAPVVVIFYDNNRPSGIPERFSGSNSGNTATLTISGTQAEDEADYYCQSWKDGVPVFGGGTKLTVLG
B6: the variant/HC_K99L came to 0.6 ratio in assay [1] and 0.1 ratio in assay [2].

B7: 2A8 HC S31V+S35D+S54F/LC Y48F+D91L+V96W (Fab, V domains shown)
VH: QVQLVESGGGLVQPGGSLRLSCAASGFTFRVYGMDWVRQAPGKGLEWVSSIRGFSSSTYYADSVKGRFTISRDNSKNTLYLQMNSLRAEDTAVYYCARKYRYWFDYWGQGTLVTVSS
VL: DIELTQPPSVSVAPGQTARISCSGDNLRNYYAHWYQQKPGQAPVVVIFYDNNRPSGIPERFSGSNSGNTATLTISGTQAEDEADYYCQSWLDGVPWFGGGTKLTVLG
Regarding B7, the variant/HC_K99L came to 5.4 ratio in assay [1] and 4.2 ratio in assay [2].

B8: 2A8 HC R30S+S31V+I51D+S55R+K99V/LC Y48F+D91L+V96W (Fab, V domains shown)
VH: QVQLVESGGGLVQPGGSLRLSCAASGFTFSVYGMSWVRQAPGKGLEWVSSDRGSRSSTYYADSVKGRFTISRDNSKNTLYLQMNSLRAEDTAVYYCARVYRYWFDYWGQGTLVTVSS
VL: DIELTQPPSVSVAPGQTARISCSGDNLRNYYAHWYQQKPGQAPVVVIFYDNNRPSGIPERFSGSNSGNTATLTISGTQAEDEADYYCQSWLDGVPWFGGGTKLTVLG
With B8, the variant/HC_K99L came out at 13.5 ratio in assay [1] and 6.5 ratio in assay [2].

B9: 2A8 HC S31V+S35D+S55R/LC Y48F+N51V+D91L+V96W (Fab, V domains shown)
VH: QVQLVESGGGLVQPGGSLRLSCAASGFTFRVYGMDWVRQAPGKGLEWVSSIRGSRSSTYYADSVKGRFTISRDNSKNTLYLQMNSLRAEDTAVYYCARKYRYWFDYWGQGTLVTVSS
VL: DIELTQPPSVSVAPGQTARISCSGDNLRNYYAHWYQQKPGQAPVVVIFYDVNRPSGIPERFSGSNSGNTATLTISGTQAEDEADYYCQSWLDGVPWFGGGTKLTVLG
Regarding B9, the variant/HC_K99L came to 8.7 ratio in assay [1] and 8.2 ratio in assay [2].

B10: 2A8 HC S31V+G33P+S35D/LC Y48F+N51V+D91L (Fab, V domains shown)
VH: QVQLVESGGGLVQPGGSLRLSCAASGFTFRVYPMDWVRQAPGKGLEWVSSIRGSSSSTYYADSVKGRFTISRDNSKNTLYLQMNSLRAEDTAVYYCARKYRYWFDYWGQGTLVTVSS
VL: DIELTQPPSVSVAPGQTARISCSGDNLRNYYAHWYQQKPGQAPVVVIFYDVNRPSGIPERFSGSNSGNTATLTISGTQAEDEADYYCQSWLDGVPVFGGGTKLTVLG
Turning to B10, the variant/HC_K99L in assay [1] is 12.2 ratio; in assay [2], 11.7 ratio.

B11: 2A8 HC S31V+I51D+S54F+K99V/LC Y48F+N51V (Fab, V domains shown)
VH: QVQLVESGGGLVQPGGSLRLSCAASGFTFRVYGMSWVRQAPGKGLEWVSSDRGFSSSTYYADSVKGRFTISRDNSKNTLYLQMNSLRAEDTAVYYCARVYRYWFDYWGQGTLVTVSS
VL: DIELTQPPSVSVAPGQTARISCSGDNLRNYYAHWYQQKPGQAPVVVIFYDVNRPSGIPERFSGSNSGNTATLTISGTQAEDEADYYCQSWDDGVPVFGGGTKLTVLG
B11: the variant/HC_K99L in assay [1] turned out to be 8.1 ratio; in assay [2] it was 2.2 ratio.

B12: 2A8 HC Q1E+S35D+S55R+K99L/LC Y48F+N51V+D91W (Fab, V domains shown)
VH: EVQLVESGGGLVQPGGSLRLSCAASGFTFRSYGMDWVRQAPGKGLEWVSSIRGSRSSTYYADSVKGRFTISRDNSKNTLYLQMNSLRAEDTAVYYCARLYRYWFDYWGQGTLVTVSS
VL: DIELTQPPSVSVAPGQTARISCSGDNLRNYYAHWYQQKPGQAPVVVIFYDVNRPSGIPERFSGSNSGNTATLTISGTQAEDEADYYCQSWWDGVPVFGGGTKLTVLG
Consider B12, for which the variant/HC_K99L came to 20.9 ratio in assay [1] and 20.3 ratio in assay [2].

B13: 2A8 HC R30S+S35D+S55R+K99L/LC Y48F+N51V+D91W (Fab, V domains shown)
VH: QVQLVESGGGLVQPGGSLRLSCAASGFTFSSYGMDWVRQAPGKGLEWVSSIRGSRSSTYYADSVKGRFTISRDNSKNTLYLQMNSLRAEDTAVYYCARLYRYWFDYWGQGTLVTVSS
VL: DIELTQPPSVSVAPGQTARISCSGDNLRNYYAHWYQQKPGQAPVVVIFYDVNRPSGIPERFSGSNSGNTATLTISGTQAEDEADYYCQSWWDGVPVFGGGTKLTVLG
With B13, the values for the variant/HC_K99L in assay [1] and in assay [2] were 17.9 ratio and 19.1 ratio, respectively.

B14: 2A8 HC S31V+I51D+R52S+S55R+K99V/LC Y48F+D91L+V96W (Fab, V domains shown)
VH: QVQLVESGGGLVQPGGSLRLSCAASGFTFRVYGMSWVRQAPGKGLEWVSSDSGSRSSTYYADSVKGRFTISRDNSKNTLYLQMNSLRAEDTAVYYCARVYRYWFDYWGQGTLVTVSS
VL: DIELTQPPSVSVAPGQTARISCSGDNLRNYYAHWYQQKPGQAPVVVIFYDNNRPSGIPERFSGSNSGNTATLTISGTQAEDEADYYCQSWLDGVPWFGGGTKLTVLG
Regarding B14, the variant/HC_K99L stood at 11.7 ratio in assay [1] and 7.9 ratio in assay [2].

B15: 2A8 HC S31V+I51D+S55R/LC Y48F+N51V+D91L (Fab, V domains shown)
VH: QVQLVESGGGLVQPGGSLRLSCAASGFTFRVYGMSWVRQAPGKGLEWVSSDRGSRSSTYYADSVKGRFTISRDNSKNTLYLQMNSLRAEDTAVYYCARKYRYWFDYWGQGTLVTVSS
VL: DIELTQPPSVSVAPGQTARISCSGDNLRNYYAHWYQQKPGQAPVVVIFYDVNRPSGIPERFSGSNSGNTATLTISGTQAEDEADYYCQSWLDGVPVFGGGTKLTVLG
For B15, the variant/HC_K99L in assay [1] worked out at 8.4 ratio; in assay [2], 6.5 ratio.

B16: 2A8 HC S31V+I51D+S55R+S56G+K99V/LC Y48F+D91L+V96W (Fab, V domains shown)
VH: QVQLVESGGGLVQPGGSLRLSCAASGFTFRVYGMSWVRQAPGKGLEWVSSDRGSRGSTYYADSVKGRFTISRDNSKNTLYLQMNSLRAEDTAVYYCARVYRYWFDYWGQGTLVTVSS
VL: DIELTQPPSVSVAPGQTARISCSGDNLRNYYAHWYQQKPGQAPVVVIFYDNNRPSGIPERFSGSNSGNTATLTISGTQAEDEADYYCQSWLDGVPWFGGGTKLTVLG
On to B16, for which the figures for the variant/HC_K99L in assay [1] and in assay [2] were 16.2 ratio and 12.1 ratio, respectively.

B17: 2A8 HC S31V+K99V/LC N51V+D91W (Fab, V domains shown)
VH: QVQLVESGGGLVQPGGSLRLSCAASGFTFRVYGMSWVRQAPGKGLEWVSSIRGSSSSTYYADSVKGRFTISRDNSKNTLYLQMNSLRAEDTAVYYCARVYRYWFDYWGQGTLVTVSS
VL: DIELTQPPSVSVAPGQTARISCSGDNLRNYYAHWYQQKPGQAPVVVIYYDVNRPSGIPERFSGSNSGNTATLTISGTQAEDEADYYCQSWWDGVPVFGGGTKLTVLG
In the case of B17, the variant/HC_K99L is 6.7 ratio in assay [1] and 5.6 ratio in assay [2].

B18: 2A8 HC S31V+G33A+I51D+S55R+K99V/LC Y48F+D91L+V96W (Fab, V domains shown)
VH: QVQLVESGGGLVQPGGSLRLSCAASGFTFRVYAMSWVRQAPGKGLEWVSSDRGSRSSTYYADSVKGRFTISRDNSKNTLYLQMNSLRAEDTAVYYCARVYRYWFDYWGQGTLVTVSS
VL: DIELTQPPSVSVAPGQTARISCSGDNLRNYYAHWYQQKPGQAPVVVIFYDNNRPSGIPERFSGSNSGNTATLTISGTQAEDEADYYCQSWLDGVPWFGGGTKLTVLG
B18: the variant/HC_K99L in assay [1] was 9 ratio; in assay [2] it was 4.7 ratio.
